Test results from patent US20220153790A1 (TECHNISCHE UNIVERSIT T M NCHEN, published 2022).
Numbering of substitutions follows the chain as printed. One block for each binder: values may come before it.

Key:
[1] = biological target: T1, unglycosylated, monobiotinylated extracellular domain of human CD98hc produced in E. coli (human, UniProt P08195 111-529, single biotin on the N-terminal biotin acceptor peptide (BAP)); assay: SPR (BIAcore 2000), biotinylated hCD98hcED captured on CAP chip, single cycle kinetics
T1 construct: also called hCD98hcED; CD98hcED; not shown: N-terminal biotin acceptor peptide (BAP) from pASK-IBA5(+)-BAP-hCD98hcED
T1 sequence: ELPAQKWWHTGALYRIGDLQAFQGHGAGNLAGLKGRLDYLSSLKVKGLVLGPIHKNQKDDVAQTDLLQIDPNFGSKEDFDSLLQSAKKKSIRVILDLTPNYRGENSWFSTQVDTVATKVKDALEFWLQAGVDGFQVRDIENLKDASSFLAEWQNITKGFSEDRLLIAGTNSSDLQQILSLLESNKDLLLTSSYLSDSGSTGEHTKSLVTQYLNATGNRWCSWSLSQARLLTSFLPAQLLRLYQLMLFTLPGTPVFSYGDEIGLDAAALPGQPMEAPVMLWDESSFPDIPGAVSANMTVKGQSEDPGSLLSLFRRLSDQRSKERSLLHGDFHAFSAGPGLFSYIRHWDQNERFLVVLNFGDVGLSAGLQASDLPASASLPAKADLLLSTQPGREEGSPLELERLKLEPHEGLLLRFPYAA
Experimental: (§1) Real time surface plasmon resonance (SPR) spectroscopy was performed on a BIAcore 2000 system (BIAcore, Uppsala, Sweden) at 25° C. using HBS-T (20 mM Hepes/NaOH pH 7.5, 150 mM NaCl, 0.005% v/v Tween20) as running buffer. The purified biotinylated m/hCD98hcED (3 μg/ml protein solution in HBS-T produced in HEK cells or E. coli) was immobilized (ARU-225) via streptavidin on a CAP sensorchip of the Biotin CAPture kit (GE Healthcare). SPR single cycle kinetic experiments were performed using five consecutive injections of a 1:2 dilution series of the purified lipocalin variant at a flow rate of 25 μl/min, with 288 s contact time and 3500 s dissociation time after the fifth injection. For multi cycle kinetic experiments, eight samples from a consecutive 1:2 dilution series of the purified lipocalin variant were measured. Rate constants of association and dissociation were calculated from reference-corrected sensorgrams by fitting to a global 1:1 Langmuir binding model using BIAevaluation software (BIAcore). The equilibrium dissociation constants (KD value) were calculated as the quotient koff/kₒₙ. To test competitive binding of the lipocalin variants P3D11, P3A12 and P1E4 to glycosylated hCD98hcED, 100 nM of P3D11 was first injected and followed by a subsequent injection of either 100 nM P3A12 or 100 nM P1E4. HBS-T injections served as negative control.

[2] = biological target: T2, fully glycosylated, monobiotinylated extracellular domain of human CD98hc produced in HEK 293E cells (human, UniProt P08195 111-529, N-linked glycosylation at Asn264, 280, 323 and 405 (UniProt P08195-2); single biotin on the N-terminal BAP); assay: SPR, biotinylated hCD98hcEDg captured on CAP chip
T2 construct: also called hCD98hcEDg; CD98hcEDg; not shown: N-terminal His6 tag and biotin acceptor peptide (BAP) from pDSG-BM-His6-BAP-hCD98hcEDg
T2 sequence: T1 sequence
Experimental: as §1

[3] = biological target: T2, fully glycosylated, monobiotinylated …; assay: not given
[4] = biological target: T2, fully glycosylated, monobiotinylated …; assay: SPR, complex dissociation half-life
Experimental: as §1

[5] = biological target: T1, unglycosylated, monobiotinylated …; assay: SPR, complex dissociation half-life
Experimental: as §1

[6] = biological target: T2, fully glycosylated, monobiotinylated …; assay: SPR, comparison of glycosylated and unglycosylated ectodomain
Experimental: as §1

[7] = biological target: T1, unglycosylated, monobiotinylated …; assay: SPR (BIAcore 2000), biotinylated hCD98hcED captured on CAP chip, multiple cycle kinetics
Experimental: as §1

[8] = biological target: T1, unglycosylated, monobiotinylated …; assay: SPR
Experimental: as §1

[9] = biological target: T1, unglycosylated, monobiotinylated …; assay: single clone flow cytometry of E. coli displaying the lipocalin, 1 nM biotinylated hCD98hcED, mean PE fluorescence
Experimental: (§2) The bacterial lawn was scraped from the plate(s), resuspended in 50 ml LB/Amp medium, followed by inoculation to an initial OD₅₅₀ of 0.15 at 37° C. Gene expression was induced at OD₅₅₀=0.5 with 10 ng/ml anhydrotetracycline (aTc) for 2.5 h. Approximately 2×10⁸ cells were sedimented and resuspended in PBS with biotinylated hCD98hcED at different concentrations (cycles 1 and 2: 100 nM; cycles 3 and 4: 10 nM; cycles 5 and 6: 1 nM) for 1 h at 4° C. After one washing step with PBS, the bacteria were incubated with 25 μg/ml streptavidin/phycoerythrin (PE) conjugate (Biolegend, San Diego, Calif.) and 3 μM dye-labeled Fab A3C5-DY634 [61] in PBS for 30 min followed by a last washing step in PBS. Bacteria were sorted on a FACSAria Ilu instrument (BD Bioscience, Heidelberg, Germany) using a 488 nm LASER diode with a 585/42 band pass filter or a 633 nm HeNe LASER in combination with a 660/20 band pass filter for excitation/detection of PE and DY634 fluorescence, respectively. Sorted bacteria were plated on LB/Amp agar, incubated at 37° C. for 12 h and then subjected to a new sorting cycle. After BSD cycle 6, single clone analysis was performed by cytofluorimetric analysis of individual colonies. Data were processed using FlowJo v10 software (FlowJo, Ashland, Oreg.). […]

[10] = biological target: T1, unglycosylated, monobiotinylated …; assay: flow cytometry of E. coli displaying the lipocalin; hCD98hcED detected by PE fluorescence, display level by Dy634 fluorescence
Experimental: as §2

Kd [1]: 2.8 nM
koff [1]: 0.00017 s⁻¹
kon [1]: 62000 M⁻¹ s⁻¹
Kd [2]: 1.9 nM
koff [2]: 0.0004 s⁻¹
kon [2]: 220000 M⁻¹ s⁻¹
Kd [3]: ≤ 200 nM
T1/2 [4]: 0.483 h
T½ [5]: 1.13 h
B1: lipocalin variant P3A12 (designed binder)
chain: QDSTSDLIPAPPLSKVPLQQNFQDNQFHGKWYVVGRAGNLGLREDKDPAKMFATIYELKEDKSYNVTYVWFDLKKCKYSIHTFVPGSQPGEFTLGKIKSGPGHTSWLVRVVSTNYNQHAMVFFKWVGQNRENFAITLYGRTKELTSELKENFIRFSKSLGLPENHIVFPVPIDQCIDG
notes: produced soluble in E. coli JM83, monomeric; also called Anticalin P3A12; not shown: C-terminal His6-tag (plasmid pNGAL118)

Kd [3]: ≤ 200 nM
B4: SEQ ID NO 10 (designed binder)
chain: QDSTSDLIPAPPLSKVPLQQNFQDNQFHGKWYVVGRAGNTGLREDKDPGKMFATIYELKEDKSYNVTYVWSGQKKCMYSIVSFVPGSQPGEYNLGNIKSAPGRTSWLVRVVSTNYNQHAMVFFKSVTQNREGFAITLYGRTKELTSELKENFIRFSKSLGLPENHIVFPVPIDQCIDG

Kd [1]: 0.15 nM
koff [1]: 3.2e-05 s⁻¹
kon [1]: 220000 M⁻¹ s⁻¹
Kd [2]: 0.17 nM
koff [2]: 5e-05 s⁻¹
kon [2]: 300000 M⁻¹ s⁻¹
Kd [3]: ≤ 200 nM
T1/2 [4]: 3.83 h
T½ [5]: 5.99 h
B5: lipocalin variant P3D11 (designed binder)
chain: B4 chain with S71F, V81G, S82T, Y92F, N93T
notes: produced soluble in E. coli JM83, monomeric; also called Anticalin P3D11; not shown: C-terminal His6-tag (plasmid pNGAL118)

Kd [3]: ≤ 200 nM
B7: SEQ ID NO 8 (designed binder)
chain: B4 chain with S71F, S82T, Y92F, N93T, H118Y, V126E, N151Y

binding result [9]: binds
B8: P3D11 variant D11.1 displayed on the E. coli cell surface (designed binder)
chain: B4 chain with S82T, Y92F, N93T, R103Q, N151I
notes: One of the variants from error-prone PCR and bacterial surface display; not shown: The display carrier: the A3C5 tag and the engineered beta-domain of the autotransporter EspP (pNGAL146)

Kd [3]: ≤ 200 nM
B12: SEQ ID NO 5 (designed binder)
chain: B4 chain with S71F, S82T, Y92F, N93T, H118Y

Continued, binder first:

B2: lipocalin variant P1E4 (designed binder)
chain: QDSTSDLIPAPPLSKVPLQQNFQDNQFHGKWYVVGIAGNSMLREDKDPFKMTATIYELKEDKSYNVTRVRFDDKKCLYRILTFVPGSQPGEFTLGNIKSRPGWTSWLVRVVSTNYNQHAMVFFKRVHQNRETFWITLYGRTKELTSELKENFIRFSKSLGLPENHIVFPVPIDQCIDG
notes: produced soluble in E. coli JM83, monomeric; also called Anticalin P1E4; not shown: C-terminal His6-tag (plasmid pNGAL118)
fold decrease of binding by N-glycosylation (hCD98hcEDg against hCD98hcED) [6]: ~100 fold
Kd [2]: 162 nM
koff [2]: 0.09 s⁻¹
kon [2]: 560000 M⁻¹ s⁻¹
Kd [3]: ≤ 200 nM
T1/2 [4]: < 0.0167 h
T½ [5]: 0.0183 h
Kd [7]: 4.5 nM
koff [7]: 0.011 s⁻¹
kon [7]: 2.5e+06 M⁻¹ s⁻¹

B3: lipocalin variant D11vs (designed binder)
chain: B4 chain with S82T, Y92F, N93T
notes: P3D11 variant with Phe71Ser and Gly81Val; also called Anticalin D11vs; not shown: C-terminal His6-tag (plasmid pNGAL118) as for the other soluble lipocalin variants
Kd [1]: 0.05 nM
koff [1]: 2.6e-05 s⁻¹
kon [1]: 450000 M⁻¹ s⁻¹
Kd [2]: 0.05 nM
koff [2]: 2.2e-05 s⁻¹
kon [2]: 460000 M⁻¹ s⁻¹
T1/2 [4]: 8.72 h
T½ [5]: 7.37 h
fold increase of affinity against P3D11 [8]: ~3 fold

B6: SEQ ID NO 7 (designed binder)
chain: B4 chain with S71F, Y78N, S82T, Y92F, N93T, H118Y
Kd [3]: ≤ 200 nM

B9: SEQ ID NO 6 (designed binder)
chain: B4 chain with Y64F, S71F, S82T, Y92F, N93T
Kd [3]: ≤ 200 nM

B10: SEQ ID NO 11 (designed binder)
chain: B4 chain with K74T, S82T, Y92F, N93T
Kd [3]: ≤ 200 nM

B11: SEQ ID NO 9 (designed binder)
chain: B4 chain with S71F, S82T, Y92F, N93T, G132E
Kd [3]: ≤ 200 nM

B13: wtLcn2 displayed on the E. coli cell surface (other)
chain: QDSTSDLIPAPPLSKVPLQQNFQDNQFQGKWYVVGLAGNAILREDKDPQKMYATIYELKEDKSYNVTSVLFRKKKCDYWIRTFVPGCQPGEFTLGNIKSYPGLTSYLVRVVSTNYNQHAMVFFKKVSQNREYFKITLYGRTKELTSELKENFIRFSKSLGLPENHIVFPVPIDQCIDG
notes: Control in the single clone FACS analysis; also called wild type Lcn2; not shown: The display carrier: the A3C5 tag and the engineered beta-domain of the autotransporter EspP (pNGAL146)
binding result [10]: no binding (tested: 100 nM hCD98hcED)
